Source: US20130011380A1

Key:
Assay in all cases: anti-Flag IP-MS, mES nuclear extract
[1] = target: Aars (mouse) (UniProt Q8BGQ7)
[2] = target: Ahdc1 (mouse) (UniProt Q6PAL7)
[3] = target: Alpl (mouse) (UniProt P09242)
[4] = target: Atxn2l (mouse) (UniProt Q7TQH0)
[5] = target: Canx (mouse) (UniProt P35564)
[6] = target: Cbx5 (mouse) (UniProt Q61686)
[7] = target: Cnot1 (mouse) (UniProt Q6ZQ08)
[8] = target: Cpsf1 (mouse) (UniProt Q9EPU4)
[9] = target: Dars (mouse) (UniProt Q922B2)
[10] = target: Ddb1 (mouse) (UniProt Q3U1J4)
[11] = target: Ddx20 (mouse) (UniProt Q9JJY4)
[12] = target: Dnaja3 (mouse) (UniProt Q99M87)
[13] = target: Dnmt3a (mouse) (UniProt O88508)
[14] = target: Eef2 (mouse) (UniProt P58252)
[15] = target: Eno2 (mouse) (UniProt P17183)
[16] = target: Gcn1l1 (mouse) (UniProt E9PVA8)
[17] = target: Hspd1 (mouse) (UniProt P63038)
[18] = target: Impdh2 (mouse) (UniProt P24547)
[19] = target: Ints3 (mouse) (UniProt Q7TPD0)
[20] = target: Kpnb1 (mouse) (UniProt P70168)
[21] = target: LOC100045999; Ran (mouse) (UniProt P62827)
[22] = target: Mcm4 (mouse) (UniProt P49717)
[23] = target: Nol9 (mouse) (UniProt Q3TZX8)
[24] = target: Nsd1 (mouse) (UniProt O88491)
[25] = target: Nup214 (mouse) (UniProt Q80U93)
[26] = target: Pum1 (mouse) (UniProt Q80U78)
[27] = target: Rad21 (mouse) (UniProt Q61550)
[28] = target: Ranbp2 (mouse) (UniProt Q9ERU9)
[29] = target: Rangap1 (mouse) (UniProt P46061)
[30] = target: Rif1 (mouse) (UniProt Q6PR54)
[31] = target: Smarca1 (mouse) (UniProt Q6PGB8)
[32] = target: Smarcc1 (mouse) (UniProt P97496)
[33] = target: Smc2 (mouse) (UniProt Q8CG48)
[34] = target: Ssrp1 (mouse) (UniProt Q08943)
[35] = target: Tcp1 (mouse) (UniProt P11983)
[36] = target: Tet1 (mouse) (UniProt Q3URK3)
[37] = target: Tex10 (mouse) (UniProt Q3URQ0)
[38] = target: Ttf1 (mouse) (UniProt Q62187)
[39] = target: Tufm (mouse) (UniProt Q8BFR5)
[40] = target: Zfp655 (mouse) (UniProt Q9CZP3)

Chain of Tex10 (mouse) (Q3URQ0 whole entry): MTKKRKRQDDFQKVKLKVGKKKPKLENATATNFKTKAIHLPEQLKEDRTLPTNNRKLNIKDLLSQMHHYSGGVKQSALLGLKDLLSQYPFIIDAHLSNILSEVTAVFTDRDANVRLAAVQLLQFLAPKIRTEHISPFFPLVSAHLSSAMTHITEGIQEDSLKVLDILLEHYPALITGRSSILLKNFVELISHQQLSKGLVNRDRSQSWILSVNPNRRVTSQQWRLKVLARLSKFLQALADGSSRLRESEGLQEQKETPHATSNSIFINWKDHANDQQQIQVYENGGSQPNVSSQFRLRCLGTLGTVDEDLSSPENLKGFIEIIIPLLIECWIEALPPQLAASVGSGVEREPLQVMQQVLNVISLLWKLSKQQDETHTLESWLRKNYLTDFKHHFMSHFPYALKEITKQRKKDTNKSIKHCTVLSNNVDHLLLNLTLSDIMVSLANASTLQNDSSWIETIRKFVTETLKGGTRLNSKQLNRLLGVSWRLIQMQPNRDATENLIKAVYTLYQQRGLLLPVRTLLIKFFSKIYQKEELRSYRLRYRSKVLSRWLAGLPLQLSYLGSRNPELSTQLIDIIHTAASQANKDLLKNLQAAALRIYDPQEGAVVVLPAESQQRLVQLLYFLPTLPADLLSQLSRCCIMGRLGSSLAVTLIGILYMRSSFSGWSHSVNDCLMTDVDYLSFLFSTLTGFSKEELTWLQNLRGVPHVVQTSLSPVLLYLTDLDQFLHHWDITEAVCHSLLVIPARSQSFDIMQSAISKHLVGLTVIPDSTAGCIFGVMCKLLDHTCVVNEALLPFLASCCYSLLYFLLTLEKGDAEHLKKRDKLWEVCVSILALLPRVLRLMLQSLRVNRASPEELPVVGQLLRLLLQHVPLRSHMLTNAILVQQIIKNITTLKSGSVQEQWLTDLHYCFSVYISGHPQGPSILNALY
Chain of Hspd1 (mouse) (P63038 27-573 limits assumed): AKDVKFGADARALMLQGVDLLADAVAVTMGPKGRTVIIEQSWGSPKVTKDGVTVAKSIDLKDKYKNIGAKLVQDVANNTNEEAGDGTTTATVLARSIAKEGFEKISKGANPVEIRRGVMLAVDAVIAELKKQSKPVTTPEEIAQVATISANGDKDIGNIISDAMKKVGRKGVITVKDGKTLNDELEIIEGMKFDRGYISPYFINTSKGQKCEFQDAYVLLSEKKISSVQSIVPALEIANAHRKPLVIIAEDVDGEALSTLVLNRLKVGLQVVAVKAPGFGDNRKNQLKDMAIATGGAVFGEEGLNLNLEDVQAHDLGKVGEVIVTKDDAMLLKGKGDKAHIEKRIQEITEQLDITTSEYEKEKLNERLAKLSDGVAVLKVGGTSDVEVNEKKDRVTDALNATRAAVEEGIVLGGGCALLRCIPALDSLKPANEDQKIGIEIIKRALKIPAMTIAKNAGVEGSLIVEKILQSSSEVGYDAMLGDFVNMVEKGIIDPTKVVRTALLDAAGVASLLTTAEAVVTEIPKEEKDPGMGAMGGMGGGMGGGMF
Chain of Smarcc1 (mouse) (P97496 whole entry): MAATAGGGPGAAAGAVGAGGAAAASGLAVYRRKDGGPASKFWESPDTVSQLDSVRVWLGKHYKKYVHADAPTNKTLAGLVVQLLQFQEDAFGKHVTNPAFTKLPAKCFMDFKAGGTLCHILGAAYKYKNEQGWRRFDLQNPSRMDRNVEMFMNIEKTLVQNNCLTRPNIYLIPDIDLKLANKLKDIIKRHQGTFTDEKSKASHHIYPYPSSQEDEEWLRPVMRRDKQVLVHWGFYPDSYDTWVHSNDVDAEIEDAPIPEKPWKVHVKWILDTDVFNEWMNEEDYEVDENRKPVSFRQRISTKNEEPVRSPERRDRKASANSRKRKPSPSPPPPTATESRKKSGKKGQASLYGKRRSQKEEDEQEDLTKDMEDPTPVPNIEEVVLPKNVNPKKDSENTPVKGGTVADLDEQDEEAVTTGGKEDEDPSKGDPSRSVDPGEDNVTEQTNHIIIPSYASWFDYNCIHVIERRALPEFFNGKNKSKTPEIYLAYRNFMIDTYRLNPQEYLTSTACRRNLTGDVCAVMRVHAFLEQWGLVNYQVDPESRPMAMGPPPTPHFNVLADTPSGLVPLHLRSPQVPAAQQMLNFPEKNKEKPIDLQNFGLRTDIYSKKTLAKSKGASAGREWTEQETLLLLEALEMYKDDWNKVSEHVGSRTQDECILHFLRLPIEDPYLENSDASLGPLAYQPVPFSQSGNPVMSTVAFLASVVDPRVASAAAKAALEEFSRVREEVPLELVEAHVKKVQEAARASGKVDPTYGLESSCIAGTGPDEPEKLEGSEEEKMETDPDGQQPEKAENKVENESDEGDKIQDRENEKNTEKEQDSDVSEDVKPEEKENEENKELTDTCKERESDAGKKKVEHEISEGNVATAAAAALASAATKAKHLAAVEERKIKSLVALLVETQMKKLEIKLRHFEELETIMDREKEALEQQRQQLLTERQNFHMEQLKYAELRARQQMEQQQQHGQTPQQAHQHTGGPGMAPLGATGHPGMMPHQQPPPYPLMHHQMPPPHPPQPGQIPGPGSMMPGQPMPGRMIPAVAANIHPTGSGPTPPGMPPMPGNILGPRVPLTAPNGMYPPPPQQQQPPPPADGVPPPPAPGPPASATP
Chain of Nol9 (mouse) (Q3TZX8 2-714 limits assumed): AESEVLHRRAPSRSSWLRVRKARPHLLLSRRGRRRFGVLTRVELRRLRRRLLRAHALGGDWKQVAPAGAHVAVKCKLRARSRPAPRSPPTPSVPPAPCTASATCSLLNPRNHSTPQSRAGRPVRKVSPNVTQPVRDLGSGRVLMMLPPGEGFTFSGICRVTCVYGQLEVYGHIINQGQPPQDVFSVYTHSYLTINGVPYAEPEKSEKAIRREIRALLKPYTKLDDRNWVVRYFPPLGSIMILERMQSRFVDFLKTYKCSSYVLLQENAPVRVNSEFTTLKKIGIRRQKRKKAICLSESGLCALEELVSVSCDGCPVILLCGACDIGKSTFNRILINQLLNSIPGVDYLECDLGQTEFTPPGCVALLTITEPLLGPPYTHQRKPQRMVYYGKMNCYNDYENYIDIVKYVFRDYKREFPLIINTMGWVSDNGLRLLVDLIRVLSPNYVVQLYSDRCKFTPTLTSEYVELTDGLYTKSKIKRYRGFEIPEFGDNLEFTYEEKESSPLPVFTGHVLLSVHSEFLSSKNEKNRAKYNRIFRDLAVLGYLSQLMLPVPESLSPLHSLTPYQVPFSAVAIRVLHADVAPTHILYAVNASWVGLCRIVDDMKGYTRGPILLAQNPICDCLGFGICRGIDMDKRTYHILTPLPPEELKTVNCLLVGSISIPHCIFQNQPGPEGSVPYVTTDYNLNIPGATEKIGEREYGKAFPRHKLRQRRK
Chain of Cbx5 (mouse) (Q61686 whole entry): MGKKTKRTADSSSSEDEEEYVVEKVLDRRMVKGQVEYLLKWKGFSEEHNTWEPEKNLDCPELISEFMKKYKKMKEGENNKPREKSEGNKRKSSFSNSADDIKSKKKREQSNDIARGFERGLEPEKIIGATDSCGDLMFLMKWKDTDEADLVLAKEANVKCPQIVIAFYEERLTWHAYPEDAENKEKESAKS
Chain of Rad21 (mouse) (Q61550 whole entry): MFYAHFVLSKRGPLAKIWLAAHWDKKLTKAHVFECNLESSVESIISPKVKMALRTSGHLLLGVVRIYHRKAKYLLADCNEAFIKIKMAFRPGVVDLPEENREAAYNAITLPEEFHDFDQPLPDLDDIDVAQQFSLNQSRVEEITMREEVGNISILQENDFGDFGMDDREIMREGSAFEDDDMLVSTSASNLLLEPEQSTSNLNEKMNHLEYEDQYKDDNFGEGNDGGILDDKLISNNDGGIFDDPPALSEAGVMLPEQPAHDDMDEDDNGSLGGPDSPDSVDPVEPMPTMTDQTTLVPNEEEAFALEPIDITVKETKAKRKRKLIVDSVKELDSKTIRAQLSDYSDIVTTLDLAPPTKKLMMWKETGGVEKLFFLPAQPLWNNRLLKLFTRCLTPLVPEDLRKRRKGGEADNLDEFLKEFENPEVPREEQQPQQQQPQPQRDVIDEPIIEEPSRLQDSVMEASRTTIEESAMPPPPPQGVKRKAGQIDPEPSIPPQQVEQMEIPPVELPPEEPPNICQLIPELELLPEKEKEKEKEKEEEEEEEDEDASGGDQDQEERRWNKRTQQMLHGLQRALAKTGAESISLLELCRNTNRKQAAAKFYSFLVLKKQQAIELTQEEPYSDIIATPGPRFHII
Chain of Canx (mouse) (P35564 21-591 limits assumed): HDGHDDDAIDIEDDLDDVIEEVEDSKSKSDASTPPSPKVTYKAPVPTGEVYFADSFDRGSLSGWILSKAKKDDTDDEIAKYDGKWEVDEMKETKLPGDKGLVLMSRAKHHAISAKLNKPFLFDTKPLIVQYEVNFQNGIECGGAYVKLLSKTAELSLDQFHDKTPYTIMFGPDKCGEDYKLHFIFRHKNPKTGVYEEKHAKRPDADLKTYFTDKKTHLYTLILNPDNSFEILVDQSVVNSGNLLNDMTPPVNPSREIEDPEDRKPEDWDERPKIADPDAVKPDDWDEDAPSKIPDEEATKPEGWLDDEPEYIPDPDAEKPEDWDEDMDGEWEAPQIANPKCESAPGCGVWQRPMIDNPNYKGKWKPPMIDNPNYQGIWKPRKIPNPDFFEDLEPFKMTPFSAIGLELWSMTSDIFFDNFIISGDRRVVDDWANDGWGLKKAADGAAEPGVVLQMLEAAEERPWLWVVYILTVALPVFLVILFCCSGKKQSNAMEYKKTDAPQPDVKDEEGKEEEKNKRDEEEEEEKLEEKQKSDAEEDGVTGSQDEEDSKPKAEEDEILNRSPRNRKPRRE
Chain of human AID containing two tandem Flag tags (Flag-human AID) (Q9GZX7 whole entry): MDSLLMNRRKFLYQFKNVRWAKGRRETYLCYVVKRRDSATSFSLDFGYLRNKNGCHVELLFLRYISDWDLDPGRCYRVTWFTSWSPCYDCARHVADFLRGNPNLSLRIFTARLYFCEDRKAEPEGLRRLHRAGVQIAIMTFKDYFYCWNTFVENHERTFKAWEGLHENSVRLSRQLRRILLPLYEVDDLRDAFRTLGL

2x Flag tag only (control) (peptide)
Nucleus peptide [1]: 3 peptides | Nucleus spectra [1]: 4 spectra | Nucleus peptide [2]: 0 peptides | Nucleus spectra [2]: 0 spectra | Nucleus peptide [3]: 5 peptides | Nucleus spectra [3]: 10 spectra | Nucleus peptide [4]: 2 peptides | Nucleus spectra [4]: 3 spectra | Nucleus peptide [5]: 2 peptides | Nucleus spectra [5]: 2 spectra | Nucleus peptide [6]: 2 peptides | Nucleus spectra [6]: 3 spectra | Nucleus peptide [7]: 3 peptides | Nucleus spectra [7]: 4 spectra | Nucleus peptide [8]: 0 peptides | Nucleus spectra [8]: 0 spectra | Nucleus peptide [9]: 1 peptides | Nucleus spectra [9]: 2 spectra | Nucleus peptide [10]: 0 peptides | Nucleus spectra [10]: 0 spectra | Nucleus peptide [11]: 1 peptides | Nucleus spectra [11]: 1 spectra | Nucleus peptide [12]: 1 peptides | Nucleus spectra [12]: 2 spectra | Nucleus peptide [13]: 0 peptides | Nucleus spectra [13]: 0 spectra | Nucleus peptide [14]: 6 peptides | Nucleus spectra [14]: 9 spectra | Nucleus peptide [15]: 1 peptides | Nucleus spectra [15]: 2 spectra | Nucleus peptide [16]: 3 peptides | Nucleus spectra [16]: 5 spectra | Nucleus peptide [17]: 5 peptides | Nucleus spectra [17]: 11 spectra | Nucleus peptide [18]: 8 peptides | Nucleus spectra [18]: 17 spectra | Nucleus peptide [19]: 0 peptides | Nucleus spectra [19]: 0 spectra | Nucleus peptide [20]: 5 peptides | Nucleus spectra [20]: 13 spectra | Nucleus peptide [21]: 1 peptides | Nucleus spectra [21]: 2 spectra | Nucleus peptide [22]: 2 peptides | Nucleus spectra [22]: 2 spectra | Nucleus peptide [23]: 1 peptides | Nucleus spectra [23]: 1 spectra | Nucleus peptide [24]: 1 peptides | Nucleus spectra [24]: 2 spectra | Nucleus peptide [25]: 7 peptides | Nucleus spectra [25]: 11 spectra | Nucleus peptide [26]: 0 peptides | Nucleus spectra [26]: 0 spectra | Nucleus peptide [27]: 0 peptides | Nucleus spectra [27]: 0 spectra | Nucleus peptide [28]: 8 peptides | Nucleus spectra [28]: 12 spectra | Nucleus peptide [29]: 0 peptides | Nucleus spectra [29]: 0 spectra | Nucleus peptide [30]: 8 peptides | Nucleus spectra [30]: 17 spectra | Nucleus peptide [31]: 2 peptides | Nucleus spectra [31]: 3 spectra | Nucleus peptide [32]: 4 peptides | Nucleus spectra [32]: 4 spectra | Nucleus peptide [33]: 4 peptides | Nucleus spectra [33]: 6 spectra | Nucleus peptide [34]: 2 peptides | Nucleus spectra [34]: 4 spectra | Nucleus peptide [35]: 1 peptides | Nucleus spectra [35]: 2 spectra | Nucleus peptide [36]: 1 peptides | Nucleus peptide [37]: 1 peptides | Nucleus spectra [37]: 3 spectra | Nucleus peptide [38]: 1 peptides | Nucleus spectra [38]: 1 spectra | Nucleus peptide [39]: 6 peptides | Nucleus spectra [39]: 11 spectra | Nucleus peptide [40]: 0 peptides | Nucleus spectra [40]: 0 spectra

human AID containing two tandem Flag tags (Flag-human AID) (from UniProt Q9GZX7 1-198) (enzyme)
Nucleus peptide [1]: 10 peptides | Nucleus spectra [1]: 21 spectra | Nucleus peptide [2]: 8 peptides | Nucleus spectra [2]: 15 spectra | Nucleus peptide [3]: 12 peptides | Nucleus spectra [3]: 25 spectra | Nucleus peptide [4]: 4 peptides | Nucleus spectra [4]: 9 spectra | Nucleus peptide [5]: 7 peptides | Nucleus spectra [5]: 23 spectra | Nucleus peptide [6]: 4 peptides | Nucleus spectra [6]: 12 spectra | Nucleus peptide [7]: 6 peptides | Nucleus spectra [7]: 11 spectra | Nucleus peptide [8]: 4 peptides | Nucleus spectra [8]: 8 spectra | Nucleus peptide [9]: 4 peptides | Nucleus spectra [9]: 6 spectra | Nucleus peptide [10]: 3 peptides | Nucleus spectra [10]: 3 spectra | Nucleus peptide [11]: 3 peptides | Nucleus spectra [11]: 7 spectra | Nucleus peptide [12]: 7 peptides | Nucleus spectra [12]: 28 spectra | Nucleus peptide [13]: 6 peptides | Nucleus spectra [13]: 13 spectra | Nucleus peptide [14]: 13 peptides | Nucleus spectra [14]: 24 spectra | Nucleus peptide [15]: 3 peptides | Nucleus spectra [15]: 7 spectra | Nucleus peptide [16]: 14 peptides | Nucleus spectra [16]: 24 spectra | Nucleus peptide [17]: 16 peptides | Nucleus spectra [17]: 44 spectra | Nucleus peptide [18]: 12 peptides | Nucleus spectra [18]: 37 spectra | Nucleus peptide [19]: 4 peptides | Nucleus spectra [19]: 5 spectra | Nucleus peptide [20]: 15 peptides | Nucleus spectra [20]: 43 spectra | Nucleus peptide [21]: 3 peptides | Nucleus spectra [21]: 9 spectra | Nucleus peptide [22]: 6 peptides | Nucleus spectra [22]: 13 spectra | Nucleus peptide [23]: 6 peptides | Nucleus spectra [23]: 14 spectra | Nucleus peptide [24]: 4 peptides | Nucleus spectra [24]: 5 spectra | Nucleus peptide [25]: 13 peptides | Nucleus spectra [25]: 29 spectra | Nucleus peptide [26]: 2 peptides | Nucleus spectra [26]: 5 spectra | Nucleus peptide [27]: 3 peptides | Nucleus spectra [27]: 6 spectra | Nucleus peptide [28]: 57 peptides | Nucleus spectra [28]: 160 spectra | Nucleus peptide [29]: 10 peptides | Nucleus spectra [29]: 29 spectra | Nucleus peptide [30]: 37 peptides | Nucleus spectra [30]: 109 spectra | Nucleus peptide [31]: 7 peptides | Nucleus spectra [31]: 14 spectra | Nucleus peptide [32]: 6 peptides | Nucleus spectra [32]: 10 spectra | Nucleus peptide [33]: 7 peptides | Nucleus spectra [33]: 16 spectra | Nucleus peptide [34]: 9 peptides | Nucleus spectra [34]: 18 spectra | Nucleus peptide [35]: 3 peptides | Nucleus spectra [35]: 5 spectra | Nucleus peptide [36]: 14 peptides | Nucleus spectra [36]: 41 spectra | Nucleus peptide [37]: 6 peptides | Nucleus spectra [37]: 12 spectra | Nucleus peptide [38]: 3 peptides | Nucleus spectra [38]: 4 spectra | Nucleus peptide [39]: 9 peptides | Nucleus spectra [39]: 25 spectra | Nucleus peptide [40]: 4 peptides | Nucleus spectra [40]: 9 spectra
